Tested on: Escherichia coli TOP10
Test: shrunken log2 fold change of peptide-encoding DNA abundance (4.5 h post-induction vs induction); higher = less antimicrobial activity (less host growth inhibition)
Details: time post-induction: 4.5 h; library: site-saturation at positions 5, 18, 19, 20
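Further: peptides expressed intracellularly from a pBAD plasmid library in pooled LB shake-flask culture, induced with 0.3% L-arabinose, DNA abundance read by NGS, three biological replicates, DESeq2 with apeglm shrinkage.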

For RRIRRRPPRLPRPRPRPWAVPRP, the “shrunken log2 fold change” value was -0.00967.

For RRIRRRPPRLPRPRPRPWCNPRP, the “shrunken log2 fold change” value was -0.543.

With RRIRRRPPRLPRPRPRPWCPPRP the “shrunken log2 fold change” value was -0.0442.

With RRIRRRPPRLPRPRPRPWDGPRP the “shrunken log2 fold change” value was 0.399.

RRIRRRPPRLPRPRPRPWEEPRP was tested, and the “shrunken log2 fold change” value was 0.158.

For RRIRRRPPRLPRPRPRPWHKPRP, the “shrunken log2 fold change” value was -0.384.

For RRIRRRPPRLPRPRPRPWHYPRP, the “shrunken log2 fold change” value was -0.0356.

In the case of RRIRRRPPRLPRPRPRPWILPRP, the “shrunken log2 fold change” value is reported as -0.0248.

For RRIRRRPPRLPRPRPRPWITPRP, the “shrunken log2 fold change” value was -0.0428.

In the case of RRIRRRPPRLPRPRPRPWKDPRP, the “shrunken log2 fold change” value is reported as -0.0442.

RRIRRRPPRLPRPRPRPWNKPRP was tested, and the “shrunken log2 fold change” value was 0.0897.

With RRIRRRPPRLPRPRPRPWNVPRP the “shrunken log2 fold change” value was 0.00231.

In the case of RRIRRRPPRLPRPRPRPWNYPRP, the “shrunken log2 fold change” value is reported as -0.242.

For RRIRRRPPRLPRPRPRPWPEPRP, the “shrunken log2 fold change” value was -0.201.

With RRIRRRPPRLPRPRPRPWPLPRP the “shrunken log2 fold change” value was 0.468.

RRIRRRPPRLPRPRPRPWPTPRP was tested, and the “shrunken log2 fold change” value was 0.0393.

With RRIRRRPPRLPRPRPRPWPYPRP the “shrunken log2 fold change” value was 0.131.

With RRIRRRPPRLPRPRPRPWRHPRP the “shrunken log2 fold change” value was 0.0972.

For RRIRRRPPRLPRPRPRPWRIPRP, the “shrunken log2 fold change” value was 0.0818.

For RRIRRRPPRLPRPRPRPWRKPRP, the “shrunken log2 fold change” value was 0.302.

For RRIRRRPPRLPRPRPRPWSMPRP, the “shrunken log2 fold change” value was -0.121.

RRIRRRPPRLPRPRPRPWSVPRP was tested, and the “shrunken log2 fold change” value was 0.0267.

For RRIRRRPPRLPRPRPRPWTEPRP, the “shrunken log2 fold change” value was 0.116.

For RRIRRRPPRLPRPRPRPWTNPRP, the “shrunken log2 fold change” value was 0.0119.

With RRIRRRPPRLPRPRPRPWVIPRP the “shrunken log2 fold change” value was -0.125.

RRIRRRPPRLPRPRPRPWVLPRP was tested, and the “shrunken log2 fold change” value was 0.0819.

In the case of RRIRRRPPRLPRPRPRPWWKPRP, the “shrunken log2 fold change” value is reported as 0.226.

For RRIRRRPPRLPRPRPRPWWYPRP, the “shrunken log2 fold change” value was -0.303.

For RRIRRRPPRLPRPRPRPWYAPRP, the “shrunken log2 fold change” value was -0.0635.

With RRIRRRPPRLPRPRPRPWYIPRP the “shrunken log2 fold change” value was -0.595.

With RRIRRRPPRLPRPRPRPWYKPRP the “shrunken log2 fold change” value was -0.371.

RRIRRRPPRLPRPRPRPYCDPRP was tested, and the “shrunken log2 fold change” value was -0.0241.

In the case of RRIRRRPPRLPRPRPRPYCRPRP, the “shrunken log2 fold change” value is reported as -0.503.

In the case of RRIRRRPPRLPRPRPRPYCSPRP, the “shrunken log2 fold change” value is reported as -0.262.

In the case of RRIRRRPPRLPRPRPRPYDEPRP, the “shrunken log2 fold change” value is reported as -0.302.

For RRIRRRPPRLPRPRPRPYEAPRP, the “shrunken log2 fold change” value was 0.125.

RRIRRRPPRLPRPRPRPYEDPRP was tested, and the “shrunken log2 fold change” value was -0.08.

For RRIRRRPPRLPRPRPRPYFKPRP, the “shrunken log2 fold change” value was -0.572.

In the case of RRIRRRPPRLPRPRPRPYGDPRP, the “shrunken log2 fold change” value is reported as -0.251.

RRIRRRPPRLPRPRPRPYGWPRP was tested, and the “shrunken log2 fold change” value was 0.0825.

For RRIRRRPPRLPRPRPRPYHKPRP, the “shrunken log2 fold change” value was -0.535.

With RRIRRRPPRLPRPRPRPYHQPRP the “shrunken log2 fold change” value was -0.0224.

RRIRRRPPRLPRPRPRPYIPPRP was tested, and the “shrunken log2 fold change” value was -0.468.

With RRIRRRPPRLPRPRPRPYISPRP the “shrunken log2 fold change” value was -0.485.

In the case of RRIRRRPPRLPRPRPRPYIWPRP, the “shrunken log2 fold change” value is reported as -0.335.

In the case of RRIRRRPPRLPRPRPRPYKHPRP, the “shrunken log2 fold change” value is reported as -0.89.

In the case of RRIRRRPPRLPRPRPRPYKMPRP, the “shrunken log2 fold change” value is reported as 0.187.

RRIRRRPPRLPRPRPRPYLKPRP was tested, and the “shrunken log2 fold change” value was -0.936.

For RRIRRRPPRLPRPRPRPYLNPRP, the “shrunken log2 fold change” value was -1.13.

For RRIRRRPPRLPRPRPRPYLRPRP, the “shrunken log2 fold change” value was 0.0234.

With RRIRRRPPRLPRPRPRPYNPPRP the “shrunken log2 fold change” value was -0.348.

RRIRRRPPRLPRPRPRPYPNPRP was tested, and the “shrunken log2 fold change” value was -0.0882.

In the case of RRIRRRPPRLPRPRPRPYPQPRP, the “shrunken log2 fold change” value is reported as -0.0454.

RRIRRRPPRLPRPRPRPYPWPRP was tested, and the “shrunken log2 fold change” value was -0.101.

For RRIRRRPPRLPRPRPRPYQMPRP, the “shrunken log2 fold change” value was -0.0261.

In the case of RRIRRRPPRLPRPRPRPYQNPRP, the “shrunken log2 fold change” value is reported as -0.74.

With RRIRRRPPRLPRPRPRPYQPPRP the “shrunken log2 fold change” value was -0.00931.

RRIRRRPPRLPRPRPRPYRLPRP was tested, and the “shrunken log2 fold change” value was -0.0421.

With RRIRRRPPRLPRPRPRPYRPPRP the “shrunken log2 fold change” value was -0.0416.

RRIRRRPPRLPRPRPRPYSSPRP was tested, and the “shrunken log2 fold change” value was -0.0612.

With RRIRRRPPRLPRPRPRPYSWPRP the “shrunken log2 fold change” value was -0.275.

RRIRRRPPRLPRPRPRPYTLPRP was tested, and the “shrunken log2 fold change” value was -0.34.

For RRIRRRPPRLPRPRPRPYVMPRP, the “shrunken log2 fold change” value was -0.882.

For RRIRRRPPRLPRPRPRPYWCPRP, the “shrunken log2 fold change” value was -0.0451.

For RRIRSRPPRLPRPRPRPACEPRP, the “shrunken log2 fold change” value was 0.233.

RRIRSRPPRLPRPRPRPACMPRP was tested, and the “shrunken log2 fold change” value was 0.159.

In the case of RRIRSRPPRLPRPRPRPACYPRP, the “shrunken log2 fold change” value is reported as -0.0386.

With RRIRSRPPRLPRPRPRPAEFPRP the “shrunken log2 fold change” value was 0.00621.

RRIRSRPPRLPRPRPRPAFTPRP was tested, and the “shrunken log2 fold change” value was -0.0573.

For RRIRSRPPRLPRPRPRPAGMPRP, the “shrunken log2 fold change” value was 0.223.

With RRIRSRPPRLPRPRPRPAHCPRP the “shrunken log2 fold change” value was 0.0412.

With RRIRSRPPRLPRPRPRPAIVPRP the “shrunken log2 fold change” value was 0.385.

For RRIRSRPPRLPRPRPRPAKHPRP, the “shrunken log2 fold change” value was -0.0685.

With RRIRSRPPRLPRPRPRPANLPRP the “shrunken log2 fold change” value was -0.0937.

In the case of RRIRSRPPRLPRPRPRPANVPRP, the “shrunken log2 fold change” value is reported as 0.218.

With RRIRSRPPRLPRPRPRPANYPRP the “shrunken log2 fold change” value was -0.43.

For RRIRSRPPRLPRPRPRPAPKPRP, the “shrunken log2 fold change” value was 0.569.

RRIRSRPPRLPRPRPRPARDPRP was tested, and the “shrunken log2 fold change” value was 0.407.

RRIRSRPPRLPRPRPRPARVPRP was tested, and the “shrunken log2 fold change” value was 0.47.

With RRIRSRPPRLPRPRPRPAVYPRP the “shrunken log2 fold change” value was -0.585.

With RRIRSRPPRLPRPRPRPAWAPRP the “shrunken log2 fold change” value was 0.333.

For RRIRSRPPRLPRPRPRPAYCPRP, the “shrunken log2 fold change” value was 0.149.

With RRIRSRPPRLPRPRPRPCASPRP the “shrunken log2 fold change” value was 0.121.

With RRIRSRPPRLPRPRPRPCAVPRP the “shrunken log2 fold change” value was -0.255.

For RRIRSRPPRLPRPRPRPCAWPRP, the “shrunken log2 fold change” value was -0.035.

For RRIRSRPPRLPRPRPRPCDAPRP, the “shrunken log2 fold change” value was -0.122.

In the case of RRIRSRPPRLPRPRPRPCDGPRP, the “shrunken log2 fold change” value is reported as 0.0333.

In the case of RRIRSRPPRLPRPRPRPCDSPRP, the “shrunken log2 fold change” value is reported as -0.207.

In the case of RRIRSRPPRLPRPRPRPCEKPRP, the “shrunken log2 fold change” value is reported as -0.475.

With RRIRSRPPRLPRPRPRPCEVPRP the “shrunken log2 fold change” value was -0.333.

With RRIRSRPPRLPRPRPRPCEWPRP the “shrunken log2 fold change” value was 0.0266.

With RRIRSRPPRLPRPRPRPCFKPRP the “shrunken log2 fold change” value was -0.173.

RRIRSRPPRLPRPRPRPCFSPRP was tested, and the “shrunken log2 fold change” value was -0.378.

With RRIRSRPPRLPRPRPRPCFTPRP the “shrunken log2 fold change” value was -0.521.

RRIRSRPPRLPRPRPRPCHHPRP was tested, and the “shrunken log2 fold change” value was -0.179.

With RRIRSRPPRLPRPRPRPCHIPRP the “shrunken log2 fold change” value was -0.872.

With RRIRSRPPRLPRPRPRPCICPRP the “shrunken log2 fold change” value was -0.209.

RRIRSRPPRLPRPRPRPCIHPRP was tested, and the “shrunken log2 fold change” value was -1.37.

With RRIRSRPPRLPRPRPRPCLCPRP the “shrunken log2 fold change” value was -1.28.

For RRIRSRPPRLPRPRPRPCLTPRP, the “shrunken log2 fold change” value was -0.293.

With RRIRSRPPRLPRPRPRPCMCPRP the “shrunken log2 fold change” value was -0.0077.

RRIRSRPPRLPRPRPRPCMWPRP was tested, and the “shrunken log2 fold change” value was 0.0267.

For RRIRSRPPRLPRPRPRPCNAPRP, the “shrunken log2 fold change” value was -0.0263.

RRIRSRPPRLPRPRPRPCPEPRP was tested, and the “shrunken log2 fold change” value was -0.444.

For RRIRSRPPRLPRPRPRPCPMPRP, the “shrunken log2 fold change” value was -0.337.

In the case of RRIRSRPPRLPRPRPRPCSDPRP, the “shrunken log2 fold change” value is reported as 0.21.

For RRIRSRPPRLPRPRPRPCTQPRP, the “shrunken log2 fold change” value was -0.294.

RRIRSRPPRLPRPRPRPCTTPRP was tested, and the “shrunken log2 fold change” value was -0.135.

RRIRSRPPRLPRPRPRPCTYPRP was tested, and the “shrunken log2 fold change” value was -0.454.
